From the supplement of paper PMC10567573

B1: CCND2 (parent)
chain: YFKCVQKDIQPYMRRMVATWMLEV
B2: STX5 (parent)
chain: ESTIVELGSIFQQLAHMVKEQEET
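Note: lentivirally expressed fusions sorted by FACS into six bins by GFP to DsRed ratio, PSI derived from sequencing read proportions per bin multiplied by bin number.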

Variants of: B1
Experiment: protein stability index of a GFP-peptide fusion (GPS, HEK-293T) (PSI 1-6); higher = more stable
Conditions: c terminus: a fixed tail appended
With YFKCVQKDIQPYMRRMVAEWMLEV the protein stability index was 1.44. Variant YFKCVQKDIQPYMRRMVAKWMLEV has a protein stability index of 3. YFKCVQKDIQPYMRRMHATWMLEV gave a protein stability index of 3.14. Variant YFKCVQKDIQPYMRRMNATWMLEV has a protein stability index of 2.15. YFKCVQKDIQPYMRRMMATWMLEV gave a protein stability index of 2. For YFKCVQKDIQPYMRRMSATWMLEV, the protein stability index was 1.77. YFKCVQKDIQPYMRRMIATWMLEV showed a protein stability index of 2.65. With YFKCVQKDIQPYMRRMEATWMLEV the protein stability index was 2.49. YFKCVQKDIQPYMRRMDATWMLEV gave a protein stability index of 3.18. For YFKCVQKDIQPYMRRMRATWMLEV, the protein stability index was 3.03. YFKCVQKDIQPYMRRMCATWMLEV gave a protein stability index of 3.2. With YFKCVQKDIQPYMRRMAATWMLEV the protein stability index was 1.55. Work on YFKCVQKDIQPYMRRMLATWMLEV yielded a protein stability index of 2.28. Work on YFKCVQKDIQPYMRRMFATWMLEV yielded a protein stability index of 2.44. Work on YFKCVQKDIQPYMRRMKATWMLEV yielded a protein stability index of 2.5. With YFKCVQKDIQPYMRRMPATWMLEV the protein stability index was 2.44. YFKCVQKDIQPYMRRMGATWMLEV showed a protein stability index of 3.39. Variant YFKCVQKDIQPYMRRMWATWMLEV has a protein stability index of 4.01. Variant YFKCVQKDIQPYMRRMQATWMLEV has a protein stability index of 2.63. Variant YFKCVQKDIQPYMRRMTATWMLEV has a protein stability index of 3.15. For YFKCVQKDIQPYMRRMVATWMLWV, the protein stability index was 3.1. In the case of YFKCVQKDIQPYMRRMVATWMLDV, the protein stability index is reported as 2.08. With YFKCVQKDIQPYMRRMVATWMLAV the protein stability index was 1.78. For YFKCVQKDIQPYMRRMVATWMLYV, the protein stability index was 3.34. For YFKCVQKDIQPYMRRMVATWMLLV, the protein stability index was 3.11. YFKCVQKDIQPYMRRMVATWMLRV gave a protein stability index of 2.96. YFKCVQKDIQPYMRRMVATWMLIV gave a protein stability index of 3.03. YFKCVQKDIQPYMRRMVATWMLHV gave a protein stability index of 2.28. In the case of YFKCVQKDIQPYMRRMVATWMLGV, the protein stability index is reported as 3.51. YFKCVQKDIQPYMRRMVATWMLVV showed a protein stability index of 2.73. In the case of YFKCVQKDIQPYMRRMVATWMLQV, the protein stability index is reported as 2.13. YFKCVQKDIQPYMRRMVATWMLCV showed a protein stability index of 2.61. Variant YFKCVQKDIQPYMRRMVATWMLTV has a protein stability index of 2.88. Work on YFKCVQKDIQPYMRRMVATWMLSV yielded a protein stability index of 3.08. In the case of YFKCVQKDIQPYMRRMVATWMLPV, the protein stability index is reported as 3.09. Work on YFKCVQKDIQPYMRRMVATWMLNV yielded a protein stability index of 2.39. YFKCVQKDIQPYMRRMVATWMLMV gave a protein stability index of 2.9. In the case of YFKCVQKDIQPYMRRMVATWMLKV, the protein stability index is reported as 2.31. YFKCVQKDIQPYMRRMVATWMLFV gave a protein stability index of 2.5. With YFKCVQKDIQPYMRRMVPTWMLEV the protein stability index was 2.96. With YFKCVQKDIQPYMRRMVDTWMLEV the protein stability index was 2.37. YFKCVQKDIQPYMRRMVKTWMLEV gave a protein stability index of 2.69. YFKCVQKDIQPYMRRMVCTWMLEV gave a protein stability index of 1.44. For YFKCVQKDIQPYMRRMVQTWMLEV, the protein stability index was 3.45. In the case of YFKCVQKDIQPYMRRMVFTWMLEV, the protein stability index is reported as 3.1. Work on YFKCVQKDIQPYMRRMVTTWMLEV yielded a protein stability index of 3.65. Work on YFKCVQKDIQPYMRRMVYTWMLEV yielded a protein stability index of 4.28. YFKCVQKDIQPYMRRMVNTWMLEV gave a protein stability index of 3.36. For YFKCVQKDIQPYMRRMVLTWMLEV, the protein stability index was 3.85. In the case of YFKCVQKDIQPYMRRMVWTWMLEV, the protein stability index is reported as 2.98. YFKCVQKDIQPYMRRMVHTWMLEV gave a protein stability index of 2.17. Variant YFKCVQKDIQPYMRRMVRTWMLEV has a protein stability index of 4.17. Variant YFKCVQKDIQPYMRRMVETWMLEV has a protein stability index of 3.2.

Variants of: B2
Experiment: as above
Conditions: c terminus: a fixed tail appended
EITIVELGSIFQQLAHMVKEQEET showed a protein stability index of 1.86. Variant ENTIVELGSIFQQLAHMVKEQEET has a protein stability index of 1.97. In the case of ERTIVELGSIFQQLAHMVKEQEET, the protein stability index is reported as 1.25. Work on EKTIVELGSIFQQLAHMVKEQEET yielded a protein stability index of 2.24. With EETIVELGSIFQQLAHMVKEQEET the protein stability index was 2.62. In the case of ELTIVELGSIFQQLAHMVKEQEET, the protein stability index is reported as 2.28. Work on EGTIVELGSIFQQLAHMVKEQEET yielded a protein stability index of 1.78. EDTIVELGSIFQQLAHMVKEQEET gave a protein stability index of 2.47. For EWTIVELGSIFQQLAHMVKEQEET, the protein stability index was 2.19. Variant EHTIVELGSIFQQLAHMVKEQEET has a protein stability index of 1.92. With EQTIVELGSIFQQLAHMVKEQEET the protein stability index was 1.97. EMTIVELGSIFQQLAHMVKEQEET showed a protein stability index of 1. For EFTIVELGSIFQQLAHMVKEQEET, the protein stability index was 2.93. EPTIVELGSIFQQLAHMVKEQEET showed a protein stability index of 1.7. Work on EATIVELGSIFQQLAHMVKEQEET yielded a protein stability index of 1.39. Variant ETTIVELGSIFQQLAHMVKEQEET has a protein stability index of 2.05. In the case of EVTIVELGSIFQQLAHMVKEQEET, the protein stability index is reported as 3.07. In the case of EYTIVELGSIFQQLAHMVKEQEET, the protein stability index is reported as 1.7. Variant ECTIVELGSIFQQLAHMVKEQEET has a protein stability index of 3.01. Variant ISTIVELGSIFQQLAHMVKEQEET has a protein stability index of 3.04. In the case of NSTIVELGSIFQQLAHMVKEQEET, the protein stability index is reported as 2.22. Work on PSTIVELGSIFQQLAHMVKEQEET yielded a protein stability index of 2.71. VSTIVELGSIFQQLAHMVKEQEET showed a protein stability index of 1.79. DSTIVELGSIFQQLAHMVKEQEET showed a protein stability index of 2.77. With FSTIVELGSIFQQLAHMVKEQEET the protein stability index was 2.08. Work on CSTIVELGSIFQQLAHMVKEQEET yielded a protein stability index of 2.31. Variant SSTIVELGSIFQQLAHMVKEQEET has a protein stability index of 1.9. ASTIVELGSIFQQLAHMVKEQEET showed a protein stability index of 2.13. For TSTIVELGSIFQQLAHMVKEQEET, the protein stability index was 2.26. HSTIVELGSIFQQLAHMVKEQEET gave a protein stability index of 1.27. Variant MSTIVELGSIFQQLAHMVKEQEET has a protein stability index of 2.45. With QSTIVELGSIFQQLAHMVKEQEET the protein stability index was 1.68. Variant GSTIVELGSIFQQLAHMVKEQEET has a protein stability index of 2.69. YSTIVELGSIFQQLAHMVKEQEET showed a protein stability index of 2.49. For LSTIVELGSIFQQLAHMVKEQEET, the protein stability index was 2.6. Variant WSTIVELGSIFQQLAHMVKEQEET has a protein stability index of 1.61. With KSTIVELGSIFQQLAHMVKEQEET the protein stability index was 1.87. With RSTIVELGSIFQQLAHMVKEQEET the protein stability index was 2.27. ESCIVELGSIFQQLAHMVKEQEET gave a protein stability index of 2.02. ESAIVELGSIFQQLAHMVKEQEET gave a protein stability index of 2.96. In the case of ESDIVELGSIFQQLAHMVKEQEET, the protein stability index is reported as 2.04.
